This note sets out measurements from patent US7422884B2, “Feedback-resistant mevalonate kinases” (DSM IP Assetts B.V., priority 2003, dated 2008).

The subject of series [1] is His6-tagged Paracoccus zeaxanthinifaciens mevalonate kinase. The experiment in a line: Feedback inhibition of mevalonate kinase by downstream products of the pathway. The following applies: 138 μM of the inhibitor; wild-type His6-tagged enzyme. In kind it is biochemical. The procedure: (§1) Enzymatic assays for measuring mevalonate kinase activity have been described, e.g., by Popák (Meth. Enzymol. 15, 393-, 1969), Gibson et al. (Enzyme 41, 47-55, 1989), Hinson et al. (J. Lipid Res. 38, 2216-2223, 1997), Schulte et al. (Anal. Biochem. 269, 245-254, 1999), or Cho et al. (J. Biol. Chem. 276, 12573-12578, 2001). For preparing mevalonate as substrate, 130 mg of DL-mevalonate lactone (FLUKA Chemie AG, Buchs, Switzerland) were dissolved in 5.5 ml of 0.2 M KOH and incubated for 15 min at 50° C. The solution was then adjusted to pH 7.0 by addition of 0.1 M HCl at room temperature (RT). Except if stated otherwise (see Example 3), the assay mixture consists of 100 mM K2HPO4/KH2PO4 (pH 7.0), 1 mM ATP, 2 mM MgCl2, 1 mM mevalonate, 0.5 mM phosphoenolpyruvate (PEP), 0.32 mM NADH, 20 U/ml pyruvate kinase and 27 U/ml lactate dehydrogenase (Sigma-Aldrich, St. Louis, Mo., USA). FPP, GGPP, IPP, DMAPP and GPP tested as inhibitors in the assay mixtures (at concentrations of 0-100 μM) were all purchased from Sigma. Upon addition of purified (His6-tagged) mevalonate kinase, enzymatic reaction reflected by consumption of NADH was followed by photometric measurement at 340 nm. One unit (1 U) of mevalonate kinase activity catalyzes the phosphorylation of 1 μmol of mevalonate per min.
(§2) Mevalonate was prepared as described in Example 2. The assay mixture consists of 100 mM K2HPO4/KH2PO4 (pH 7.0), 1 mM ATP, 1 mM mevalonate, 2 mM MgCl2, 0.5 mM phosphoenolpyruvate (PEP), 0.32 mM NADH, 20 U/ml pyruvate kinase and 27 U/ml lactate dehydrogenase (Sigma-Aldrich, St. Louis, Mo., USA). FPP, GGPP, IPP, DMAPP and GPP tested as inhibitors in the assay mixtures were all purchased from Sigma. 92 μM FPP or 17.6 μM GGPP were used for inhibition assays performed with the mevalonate kinase mutants. For the comparison of inhibition by FPP, GGPP, IPP, DMAPP and GPP, 138 μM of these intermediates were added (Example 9). Upon addition of purified (HiS6-tagged) mevalonate kinase, enzymatic reaction reflected by consumption of NADH was followed by photometric measurement at 340 nm.
Different mevalonate kinases were previously reported to be sensitive to feedback inhibition by the following downstream products of the mevalonate pathway: IPP, DMAPP, GPP, FPP, GGPP, phytyl-PP, farnesol, dolichol phosphate.

Series [2] relates to Paracoccus zeaxanthinifaciens mevalonate kinase. Nature of the series: Mevalonate kinase activity assay (NADH-coupled photometric assay, specific activity of mutants). In kind it is biochemical. The note with it: purified His6-tagged enzyme, 1 mM ATP, 1 mM mevalonate, pH 7.0. How it is done: as §1, §2
The test system is the same in series [3]. The experiment in a line: Feedback resistance of mevalonate kinase mutants to FPP or GGPP. Format: biochemical. The following applies: feedback inhibitor FPP, 92 μM; relative to wild-type. How it is done:
“Feedback resistance” shall mean any increase in resistance to “feedback inhibition” (as defined above). Feedback resistance can be analyzed in different ways known to those skilled in the art. An appropriate approach shall be described here shortly: mevalonate kinase activity is measured in an activity assay similar to the one described in Example 2 at non-saturating concentrations of ATP (or of another phosphate donor) and mevalonate (or mevalonate analogue), i.e., at ATP (or phosphate donor) and mevalonate (or mevalonate analogue) concentrations around which the reaction rate is sensitive to changes of these substrate concentrations, e.g. at concentrations around the respective Km values of the enzyme under investigation for these substrates. The activities of both wild-type mevalonate kinase and of a variant/mutant of this enzyme are measured under otherwise identical conditions both in the absence and presence of a relevant concentration of a feedback inhibitor, i.e., at a concentration of feedback inhibitor affording significant inhibition of the wild-type mevalonate kinase. […] Feedback resistance (%) is calculated as follows: if a and b are the measured mevalonate kinase activities of the wild-type enzyme in the absence and presence, respectively, of the feedback inhibitor (e.g., FPP), and if c and d are the measured mevalonate kinase activities of the mutant enzyme in the absence and presence, respectively, of the same feedback inhibitor, then % feedback resistance is: % resistance=100·((d/c)−(b/a))/(1−(b/a)) […]
Feedback resistance (%) is calculated as follows: if a and b are the measured mevalonate kinase activities of the wild-type enzyme in the absence and presence, respectively, of the feedback inhibitor (in this case, FPP), and if c and d are the measured mevalonate kinase activities of the mutant enzyme in the absence and presence, respectively, of the same feedback inhibitor, then % feedback resistance is: % resistance=100·((d/c)−(b/a))/(1−(b/a))

The conditions of series [4]: pH 8.

Numbering of substitutions follows the chain as printed. Names may count otherwise.

Regarding `CC(C)=CCOP(=O)(O)OP(=O)(O)O` [DMAPP, 3,3-dimethylallyl diphosphate], the “Inhibition of mevalonate kinase activity” value in series [1] was 14.7%.
With `CC(C)=CCC/C(C)=C/CC/C(C)=C/CC/C(C)=C/COP(=O)(O)OP(=O)(O)O` [GGPP, geranylgeranyl diphosphate], the “Inhibition of mevalonate kinase activity” value in series [1] is given as 98%.
Take `CC(C)=CCC/C(C)=C/COP(=O)(O)OP(=O)(O)O` [GPP, geranyl diphosphate]: the “Inhibition of mevalonate kinase activity” value in series [1] is given as 18.6%.
For `C=C(C)CCOP(=O)(O)OP(=O)(O)O` [IPP, isopentenyl diphosphate], the “Inhibition of mevalonate kinase activity” value in series [1] is reported as 16.3%.

B1: G47D (protein, listed as Paracoccus zeaxanthinifaciens)
chain: MSTGRPEAGAHAPGKLILSGEHSVLYGAPALAMAIARYTEVWFTPLDIGEGIRTTFANLSGGATYSLKLLSGFKSRLDRRFEQFLNGDLKVHKVLTHPDDLAVYALASLLHDKPPGTAAMPGIGAMHHLPRPGELGSRTELPIGAGMGSSAAIVAATTVLFETLLDRPKTPEQRFDRVRFCERLKHGKAGPIDAASVVRGGLVRVGGNGPGSISSFDLPEDHDLVAGRGWYWVLHGRPVSGTGECVSAVAAAHGRDAALWDAFAVCTRALEAALLSGGSPDAAITENQRLLERIGVVPAATQALVAQIEEAGGAAKICGAGSVRGDHGGAVLVRIDDAQAMASVMARHPDLDWAPLRMSRTGAAPGPAPRAQPLPGQG
Turning to B1, the “Specific activity (% of wild-type)” value in series [2] is reported as 121 % of wild-type. Besides, the “Feedback resistance (%)” value in series [3] was determined as 32%.

B2: K93E (protein, listed as Paracoccus zeaxanthinifaciens)
chain: B1 chain with D47G, K93E
Take B2: the “Specific activity (% of wild-type)” value in series [2] is 109 % of wild-type. Further, the “Feedback resistance (%)” value in series [3] worked out at 33%.

B3: WT: wild-type His6-tagged mevalonate kinase of Paracoccus zeaxanthinifaciens, SEQ ID NO:15 (protein)
chain: MRGSHHHHHHSTGRPEAGAHAPGKLILSGEHSVLYGAPALAMAIARYTEVWFTPLGIGEGIRTTFANLSGGATYSLKLLSGFKSRLDRRFEQFLNGDLKVHKVLTHPDDLAVYALASLLHDKPPGTAAMPGIGAMHHLPRPGELGSRTELPIGAGMGSSAAIVAATTVLFETLLDRPKTPEQRFDRVRFCERLKHGKAGPIDAASVVRGGLVRVGGNGPGSISSFDLPEDHDLVAGRGWYWVLHGRPVSGTGECVSAVAAAHGRDAALWDAFAVCTRALEAALLSGGSPDAAITENQRLLERIGVVPAATQALVAQIEEAGGAAKICGAGSVRGDHGGAVLVRIDDAQAMASVMARHPDLDWAPLRMSRTGAAPGPAPRAQPLPGQG
modifications: His6 tag; His6-Paracoccus zeaxanthinifaciens
Regarding B3, in series [2], the “Specific activity (% of wild-type)” value is 100 % of wild-type. In series [4], the “Solubility / tendency to aggregate” value is “pronounced tendency to aggregate/precipitate”. In series [3], the “Feedback resistance (%)” value is reported as 0%.
